Measurements from publication PMC7926377.

Key:
[1] = molecular target: T1, SplF-His6 (S. aureus strain 8325-4) (UniProt Q2FXC8)
T1 sequence: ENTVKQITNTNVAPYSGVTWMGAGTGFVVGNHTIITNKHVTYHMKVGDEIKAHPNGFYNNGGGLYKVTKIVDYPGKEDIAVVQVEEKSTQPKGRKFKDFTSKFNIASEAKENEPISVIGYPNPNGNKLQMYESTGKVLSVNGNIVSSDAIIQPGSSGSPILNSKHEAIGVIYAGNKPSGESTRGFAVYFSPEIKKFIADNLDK

[2] = molecular target: Met-Gly-SplF-His6 (S. aureus strain 8325-4) (UniProt Q2FXC8)
[3] = molecular target: T2, His6-SplF (S. aureus strain 8325-4) (UniProt Q2FXC8)
T2 sequence: T1 sequence

ABZ-Tyr-Met-Leu-Ser-ANB-NH2 (peptide)
KM of ABZ-Tyr-Met-Leu-Ser-ANB-NH2 hydrolysis (Michaelis-Menten fit, PBS, 37 °C) [1]: 30.8 µM | KM of ABZ-Tyr-Met-Leu-Ser-ANB-NH2 hydrolysis (Michaelis-Menten fit, PBS, 37 °C) [2]: 18.2 µM | KM of ABZ-Tyr-Met-Leu-Ser-ANB-NH2 hydrolysis (Michaelis-Menten fit, PBS, 37 °C) [3]: 21.4 µM
